From US20240084003A1 (SIMCERE ZAIMING PHARMACEUTICAL, published 2024)

B1: F2.205.9 (antibody, human IgG1, lambda, V domains shown)
VH: QVTLKESGPGILQPSQTLSLTCSFSGFSLSTSGMGVGWIRQPSGKGLEWLAHIWWDDDEYYNPALKSRLTISKDTSKNQVFLKIANVDTADTATYYCARISIPYGYYDWFFDVWGTGTTVTVSA
VL: QAVVTQESALTTSPGETVTLTCRSSTGAVTTRNYANWVQEKPDHLFTGLIGGTNNRAPGVPARFSGSLIGDKAALTITGAQTEDEAIYFCALWYSNHFIFGSGTKVTVLG
notes: Human-murine chimeric IgG1, lambda
B2: F2.343.16 (antibody, human IgG1, lambda, V domains shown)
VH: QVQLKQSGPGLVQPSQSLSITCTVSGFSLTGYGVQWVRQSPGKGLEWLGVIWGGGGTDYNAAFISRLNIIKDNSKSQVFFKMNSLQADDTAIYYCARYSKYGHFDVWGTGTAVTVSS
VL: QAVVTQESALTTSPGETVTLTCRSSTGAVTTSNYANWVQEKPDHLFTGLIGGTYNRVPGVPARFSGSLIGDKAALTITGAQTEDEAIYFCALWYSNHFWVFGGGTKLTVLG
notes: as for B1
B3: F1.245.2 (antibody, human IgG1, kappa, V domains shown)
VH: EVQLQQSGAELVKPGASVKLSCTGSGFNIKDYYIHWVKQRTEQGLEWMGRIDPEDGETEYAPKFQDEATITSDTSSNTAYLQLSSLTYEDTAVYYCAREAAGYFYRGSSYGYFDVWGTGTTVTVSS
VL: DFQMTQTTSFLSASLGDRVTISCSASQDISNYLNWYQQKPDGTVKLLIYYTSSLHSGVPSRFSGSGSGTDYSLTISNLEPEDIATYYCQQYSMLPYTFGGGTKLEMER
notes: Human-murine chimeric IgG1, kappa
B4: F1.60.9 (antibody, human IgG1, kappa, V domains shown)
VH: QVQLKESGPGLVAPSQSLSITCTVSGLSLNNYGVSWVRQPPGKGLEWLGVIWGDGSTNYHSALISRLSISKDNSKSQVFLKLNSLHTDDTATYYCAINWGDYWGQGTTLIVSS
VL: DIKMTQSPSSMNASLGERVTITCKASQDINSYLSWFQQKPGKSPKILIYRANRLIDGVPSRFSGSGSGQDYSLTISSLEYEDMGIYYCLQYGVFPLTFGAGTKLELKR
notes: as for B3
B5: F2.55.1 (antibody, human IgG1, lambda, V domains shown)
VH: QVTLKESGPGILQPSQTLSLTCSFSGFSLSTFPLGVGWIRQPSGKGLEWLAHVWWNDDDYYNPALKSRLTISKDTSNTRVFLSVASVDTAETATYYCARLNWDRWYFDVWGTGTTVTVSS
VL: QLVLTQSSSASFSLGASAKLTCTLSSQHSAYTVEWYQQQPLKPPKYVMELKKDGSHSTGDGIPDRFSGSSSGADRYLSISNIQPEDEAIYICGVGDTVKEQFVFGGGTKVTVLG
notes: as for B1
B6: F2.70.2 (antibody, human IgG1, lambda, V domains shown)
VH: EVQLVESGGGLVKPGGSLKLSCAASGFTFSDYGMNWFRQAPEKGLEWVAYISRGSHTIYYADTVKGRFTISRDNAKNTLFLQMTSLRSNDTAMYYCVRMAGYYAMDYWGQGTSVTVSS
VL: QLVLTQSSSASFSLGASAKLTCTLSSQHSSYIIEWYQQQPLKPPKYVMELKKDGSHSTGDGIPDRFSGSSSGADRYLSISNIQPEDEAIYICGVGDTIKEQFVYVFGGGTKVTVLG
notes: as for B1
B7: F2.180.16 (antibody, human IgG1, lambda, V domains shown)
VH: EVKLVESGGGLVLPGGSLKISCAASGFTFSDYYMYWIRQTPDKRLEWVAYISNTGYSTFYPDSVKGRFTVSRDNAKNTLYLQMSRLQSEDTAMYYCARHGILYAMDYWGQGTSVTVSS
VL: QPVLTQSSSASFSLGASAKLTCTLSSQYSTYTIGWYQQQPLKPPKYVMELKHDGSRHTGDGIPDRFSGSSSGADRYLSISNIQPEDEATYICGVGDTIKEQFMYVFGGGTKVTVLG
notes: as for B1
B8: F2.104.10 (antibody, human IgG1, lambda, V domains shown)
VH: EVQLVESGGGFVKPGGSLKLSCAASGFTFSDYGMNWFRQAPEKGLEWVAYISRGSHTIYYADTVKGRFTISRDNAENTLFLQMTSLRSNDTAMYYCVRMAGYYAMDYWGQGTSLTVSS
VL: QLVLTQSSSASFSLGASAKLTCTLSSQHSSYIIEWYQQQPLKPPKYVMEVKKDGSHSTGDGIPDRFSGSSSGADRYLSISNIQSEDEAIYICGVGDTIKEQFVYVFGGGTKVTVLG
notes: as for B1
B9: F1.280.1 (antibody, human IgG1, kappa, V domains shown)
VH: QIQLVQSGPELKKPGETVKISCKASGYTFTTYGMSWVKQTPGKGLTWMGWINTDSGVPTYADDFKRRFAFSLEASATTAYLQINNLKNEDTATYFCARGGPDYWGQGTTLTVSS
VL: DILLTQSPATLSVTPGETVSLSCRASQSIYKNLHWYHQKSHRSPRLLIKYASDSISGIPSRFTGSGSGTNFTLSINSVKPEDEGIYYCLQGYIVPLTFGAGTKLELKR
notes: as for B3
B10: F1.257.3 (antibody, human IgG1, kappa, V domains shown)
VH: QVQLQQSGPELARPGASVKLSCKASGYTFTSYGISWVKQRTGQDLEWIGEIYPKLGTTYYNEKFKDKATLTTDRSSSTAYMALRSLTSEDSAVYFCACPHYYATRGGDYWGQGTTLTVSS
VL: EIVLTQSPATLSVTPGDSVTFSCRASQSISNHLHWYQQKSHESPRLLIRYASQSISGIPSRFSGSGSGTDFTLSLSSVETEDFGVYFCQQSHSWPYTFGGGTKLEIAR
notes: as for B3

Each binder was assayed against T1, murine CD22 protein (ACROBiosystems, SI2-M52Ha) (murine, UniProt P35329 22-708) (assay: ELISA, murine CD22-ECD-His coated).
T1 construct: extracellular domain; also called murine CD22-ECD; murine CD22-ECD-His
T1 sequence (looked up): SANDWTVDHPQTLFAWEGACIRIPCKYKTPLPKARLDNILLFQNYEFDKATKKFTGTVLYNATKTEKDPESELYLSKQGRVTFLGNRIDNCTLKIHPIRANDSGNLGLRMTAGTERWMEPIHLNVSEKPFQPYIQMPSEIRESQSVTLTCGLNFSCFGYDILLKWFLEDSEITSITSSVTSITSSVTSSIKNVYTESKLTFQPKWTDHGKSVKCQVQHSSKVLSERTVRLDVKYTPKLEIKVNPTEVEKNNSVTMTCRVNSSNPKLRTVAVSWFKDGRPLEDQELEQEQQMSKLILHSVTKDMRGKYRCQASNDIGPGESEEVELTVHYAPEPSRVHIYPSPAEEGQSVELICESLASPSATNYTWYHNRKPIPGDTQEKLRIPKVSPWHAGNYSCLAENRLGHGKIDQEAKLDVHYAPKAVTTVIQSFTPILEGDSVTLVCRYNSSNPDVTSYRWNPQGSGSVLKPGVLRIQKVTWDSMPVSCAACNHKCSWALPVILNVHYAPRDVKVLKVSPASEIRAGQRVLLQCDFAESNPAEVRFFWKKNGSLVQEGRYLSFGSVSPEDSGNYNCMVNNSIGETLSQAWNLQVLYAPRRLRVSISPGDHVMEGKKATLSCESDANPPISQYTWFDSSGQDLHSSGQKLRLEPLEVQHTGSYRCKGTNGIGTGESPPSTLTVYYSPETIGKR
How it was run: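 Direct ELISA: chimeric antibody binding to CD22 coated at 2 μg/mL, with a 37° C, 2 h antibody step and HRP/TMB detection.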
B1: no binding (tested: 100 nM). B2: no binding (tested: 100 nM). B3: no binding (tested: 100 nM). B4: no binding (tested: 100 nM). B5: no binding (tested: 100 nM). B6: no binding (tested: 100 nM). B7: no binding (tested: 100 nM). B8: no binding (tested: 100 nM). B9: no binding (tested: 100 nM). B10: no binding (tested: 100 nM).
